# “And” between values parts separate entries of the source, which are not always exact repeats. Equal values may be shown once.
# B1: Ribonuclease wild type, P00648 (protein)
# chain: MMKMEGIALKKRLSWISVCLLVLVSAAGMLFSTAAKTETSSHKAHTEAQVINTFDGVADYLQTYHKLPDNYITKSEAQALGWVASKGNLADVAPGKSIGGDIFSNREGKLPGKSGRTWREADINYTSGFRNSDRILYSSDWLIYKTTDHYQTFTKIR
# Details: Bacillus amyloliquefaciens, pH 4.4, Thermal, DSC, Sodium acetate/Acetic acid 6.08 mM/13.92 mM/, reversible: yes (>95%), whole UniProt chain shown
protein,measurement,setting,value
B1,heat capacity change of unfolding,25 °C,1.6 kcal/mol/K
same,unfolding free energy,25 °C,8.69 kcal/mol and 8.66 kcal/mol
same,Tm,,51.5 °C and 51.6 °C
same,unfolding enthalpy (calorimetric),,128 kcal/mol
same,unfolding enthalpy (van 't Hoff),,128 kcal/mol and 129 kcal/mol

# Reference: FireProtDB (doi:10.1093/protein/7.9.1089)
